Results taken from US20220204643A1 (published 2022).
Each block holds one binder with its values, some of them ahead of it.

How the values were obtained:
DEAD-box helicase 18 = target: T1, DEAD-box helicase 18 (human, UniProt Q9NVP1 1-670); assay: protein array
T1 construct: on protein array; also called DDX18
T1 sequence: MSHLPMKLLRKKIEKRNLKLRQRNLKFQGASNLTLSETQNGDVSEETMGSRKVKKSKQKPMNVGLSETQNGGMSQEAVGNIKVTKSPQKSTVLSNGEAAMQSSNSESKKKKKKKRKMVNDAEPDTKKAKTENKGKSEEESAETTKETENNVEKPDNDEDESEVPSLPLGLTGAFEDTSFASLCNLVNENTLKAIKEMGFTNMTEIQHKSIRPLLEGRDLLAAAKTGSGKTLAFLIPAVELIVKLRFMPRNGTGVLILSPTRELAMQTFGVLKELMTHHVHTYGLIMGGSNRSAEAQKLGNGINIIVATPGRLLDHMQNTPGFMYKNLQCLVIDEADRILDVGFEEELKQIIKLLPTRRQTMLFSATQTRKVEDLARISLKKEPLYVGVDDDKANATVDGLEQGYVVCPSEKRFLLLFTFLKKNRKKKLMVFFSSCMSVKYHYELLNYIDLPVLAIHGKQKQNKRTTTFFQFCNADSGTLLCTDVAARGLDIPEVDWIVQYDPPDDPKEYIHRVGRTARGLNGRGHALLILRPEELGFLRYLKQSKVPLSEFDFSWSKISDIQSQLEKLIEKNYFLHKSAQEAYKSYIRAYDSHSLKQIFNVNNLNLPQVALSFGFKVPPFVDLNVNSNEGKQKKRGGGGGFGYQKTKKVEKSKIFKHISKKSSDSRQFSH

[1] = target: T2, syntaxin 1A, transcript variant 1 (human, UniProt Q16623 1-288); assay: protein array
T2 construct: on protein array; also called STX1A
T2 sequence (Q16623 whole entry, change not shown): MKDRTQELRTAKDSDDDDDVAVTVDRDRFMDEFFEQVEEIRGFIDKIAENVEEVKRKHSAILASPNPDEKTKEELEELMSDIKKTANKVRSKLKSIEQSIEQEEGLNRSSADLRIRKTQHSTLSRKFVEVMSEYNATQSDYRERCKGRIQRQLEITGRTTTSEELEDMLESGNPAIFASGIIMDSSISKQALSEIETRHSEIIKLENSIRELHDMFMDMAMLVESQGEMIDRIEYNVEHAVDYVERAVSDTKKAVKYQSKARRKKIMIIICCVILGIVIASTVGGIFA

[2] = target: T3, geminin DNA replication inhibitor, transcript variant 1 (human, UniProt O75496 1-209); assay: protein array
T3 construct: on protein array; also called GMNN
T3 sequence: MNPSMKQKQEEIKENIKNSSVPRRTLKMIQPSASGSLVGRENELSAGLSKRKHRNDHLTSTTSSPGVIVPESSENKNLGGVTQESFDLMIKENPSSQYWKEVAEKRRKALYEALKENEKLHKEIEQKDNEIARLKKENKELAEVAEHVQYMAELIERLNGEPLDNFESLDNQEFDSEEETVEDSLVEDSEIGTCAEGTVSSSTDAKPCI

[3] = target: T4, family with sequence similarity 177 member A1, transcript variant 2 (human, UniProt Q8N128 1-213)
T4 construct: HuProt array protein, full-length recombinant from yeast; also called FAM177A1
T4 sequence: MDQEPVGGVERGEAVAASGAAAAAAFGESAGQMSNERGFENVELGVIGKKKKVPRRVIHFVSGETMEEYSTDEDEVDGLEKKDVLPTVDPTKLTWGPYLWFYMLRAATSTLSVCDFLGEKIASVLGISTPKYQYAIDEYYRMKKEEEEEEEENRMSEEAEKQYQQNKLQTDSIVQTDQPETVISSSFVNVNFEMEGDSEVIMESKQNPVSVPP

[4] = target: T5, Killer cell lectin like receptor g2 (human, UniProt A4D1S0 1-409)
T5 construct: HuProt array protein, full-length recombinant from yeast; also called KLRG2
T5 sequence: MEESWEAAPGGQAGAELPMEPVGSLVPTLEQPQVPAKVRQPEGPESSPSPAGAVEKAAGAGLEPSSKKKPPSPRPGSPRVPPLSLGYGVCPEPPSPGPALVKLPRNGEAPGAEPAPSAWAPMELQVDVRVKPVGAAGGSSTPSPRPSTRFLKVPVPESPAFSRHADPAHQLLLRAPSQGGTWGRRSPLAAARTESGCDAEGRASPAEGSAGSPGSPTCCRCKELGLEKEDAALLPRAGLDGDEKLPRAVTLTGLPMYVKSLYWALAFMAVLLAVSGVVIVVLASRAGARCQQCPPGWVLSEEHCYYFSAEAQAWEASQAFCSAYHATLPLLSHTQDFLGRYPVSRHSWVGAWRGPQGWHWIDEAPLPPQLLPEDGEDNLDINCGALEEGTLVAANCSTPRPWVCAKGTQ

[5] = target: T6, tripartite motif containing 35, transcript variant 1 (human, UniProt Q9UPQ4 1-493)
T6 construct: HuProt array protein, full-length recombinant from yeast; also called TRIM35
T6 sequence: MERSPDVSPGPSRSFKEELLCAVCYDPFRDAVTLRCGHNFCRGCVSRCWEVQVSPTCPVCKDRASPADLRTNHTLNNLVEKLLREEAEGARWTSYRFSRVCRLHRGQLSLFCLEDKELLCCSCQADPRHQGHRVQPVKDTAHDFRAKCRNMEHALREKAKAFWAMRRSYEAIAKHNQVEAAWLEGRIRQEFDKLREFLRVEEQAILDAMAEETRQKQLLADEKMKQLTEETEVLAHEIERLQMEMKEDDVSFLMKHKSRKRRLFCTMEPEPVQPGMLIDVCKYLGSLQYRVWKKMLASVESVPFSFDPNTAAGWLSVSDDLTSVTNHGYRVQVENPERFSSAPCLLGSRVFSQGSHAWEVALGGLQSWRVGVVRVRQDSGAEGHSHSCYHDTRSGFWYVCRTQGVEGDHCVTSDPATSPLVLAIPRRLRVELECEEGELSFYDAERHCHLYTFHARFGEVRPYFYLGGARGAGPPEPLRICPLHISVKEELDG

FMR1 autosomal homolog 2 = target: T7, FMR1 autosomal homolog 2 (human, UniProt P51116 1-673)
T7 construct: HuProt array protein, full-length recombinant from yeast; also called FXR2
T7 sequence (P51116 whole entry Q252H): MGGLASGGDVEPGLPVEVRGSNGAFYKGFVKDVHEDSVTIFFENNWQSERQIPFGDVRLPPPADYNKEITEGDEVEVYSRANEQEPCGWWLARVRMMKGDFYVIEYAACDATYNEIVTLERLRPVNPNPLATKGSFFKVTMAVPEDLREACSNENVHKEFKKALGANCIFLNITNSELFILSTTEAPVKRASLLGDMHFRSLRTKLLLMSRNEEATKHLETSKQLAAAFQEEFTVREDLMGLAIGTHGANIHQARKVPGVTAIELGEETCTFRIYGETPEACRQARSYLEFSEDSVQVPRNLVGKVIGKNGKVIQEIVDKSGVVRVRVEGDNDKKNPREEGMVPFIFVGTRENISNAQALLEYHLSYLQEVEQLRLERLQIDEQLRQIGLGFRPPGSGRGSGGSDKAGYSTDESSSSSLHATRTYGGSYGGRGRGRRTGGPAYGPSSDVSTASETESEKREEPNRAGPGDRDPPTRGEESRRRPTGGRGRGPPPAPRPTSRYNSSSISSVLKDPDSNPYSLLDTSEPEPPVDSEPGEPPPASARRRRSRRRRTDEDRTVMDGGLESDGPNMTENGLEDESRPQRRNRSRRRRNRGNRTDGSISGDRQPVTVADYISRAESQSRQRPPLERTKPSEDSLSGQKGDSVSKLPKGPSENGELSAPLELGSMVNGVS

[6] = target: T8, hydroxymethylbilane synthase, transcript variant X3 (human, UniProt P08397 18-361)
T8 construct: HuProt array protein, full-length recombinant from yeast; also called HMBS
T8 sequence: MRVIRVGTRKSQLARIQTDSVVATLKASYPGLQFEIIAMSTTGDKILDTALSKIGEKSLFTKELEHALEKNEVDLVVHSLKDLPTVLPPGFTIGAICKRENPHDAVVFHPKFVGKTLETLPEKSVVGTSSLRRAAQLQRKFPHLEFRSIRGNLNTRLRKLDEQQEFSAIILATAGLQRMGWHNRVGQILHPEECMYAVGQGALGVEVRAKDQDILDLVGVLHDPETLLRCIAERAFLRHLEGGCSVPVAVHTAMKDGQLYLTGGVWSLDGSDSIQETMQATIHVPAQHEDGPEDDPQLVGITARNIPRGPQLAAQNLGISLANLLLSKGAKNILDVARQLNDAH

[7] = target: T9, hook microtubule tethering protein 2, transcript variant 2 (human, UniProt Q96ED9 1-719)
T9 construct: HuProt array protein, full-length recombinant from yeast; also called HOOK2
T9 sequence: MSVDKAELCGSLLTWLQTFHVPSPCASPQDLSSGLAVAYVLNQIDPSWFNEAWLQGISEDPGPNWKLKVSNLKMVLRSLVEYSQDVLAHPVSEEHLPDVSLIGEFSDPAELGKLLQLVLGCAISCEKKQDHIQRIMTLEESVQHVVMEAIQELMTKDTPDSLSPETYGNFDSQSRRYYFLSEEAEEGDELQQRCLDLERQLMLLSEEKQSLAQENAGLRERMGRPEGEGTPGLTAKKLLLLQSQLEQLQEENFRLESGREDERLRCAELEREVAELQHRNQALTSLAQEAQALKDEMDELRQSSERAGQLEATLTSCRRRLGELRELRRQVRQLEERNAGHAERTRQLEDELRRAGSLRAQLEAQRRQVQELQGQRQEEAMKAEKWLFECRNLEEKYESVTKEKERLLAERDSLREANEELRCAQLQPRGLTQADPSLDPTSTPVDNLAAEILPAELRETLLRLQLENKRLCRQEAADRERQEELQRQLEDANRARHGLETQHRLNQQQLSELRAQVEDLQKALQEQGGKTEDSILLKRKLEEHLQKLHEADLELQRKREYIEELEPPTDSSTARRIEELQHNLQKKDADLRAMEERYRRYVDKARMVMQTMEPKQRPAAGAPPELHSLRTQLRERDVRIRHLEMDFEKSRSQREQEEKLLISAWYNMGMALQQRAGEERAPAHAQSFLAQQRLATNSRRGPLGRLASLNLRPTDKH

[8] = target: T10, RAN binding protein 10, transcript variant 1 (human, UniProt Q6VN20 2-620)
T10 construct: HuProt array protein, full-length recombinant from yeast; also called RANBP10
T10 sequence (Q6VN20 2-620 limits assumed, change not shown): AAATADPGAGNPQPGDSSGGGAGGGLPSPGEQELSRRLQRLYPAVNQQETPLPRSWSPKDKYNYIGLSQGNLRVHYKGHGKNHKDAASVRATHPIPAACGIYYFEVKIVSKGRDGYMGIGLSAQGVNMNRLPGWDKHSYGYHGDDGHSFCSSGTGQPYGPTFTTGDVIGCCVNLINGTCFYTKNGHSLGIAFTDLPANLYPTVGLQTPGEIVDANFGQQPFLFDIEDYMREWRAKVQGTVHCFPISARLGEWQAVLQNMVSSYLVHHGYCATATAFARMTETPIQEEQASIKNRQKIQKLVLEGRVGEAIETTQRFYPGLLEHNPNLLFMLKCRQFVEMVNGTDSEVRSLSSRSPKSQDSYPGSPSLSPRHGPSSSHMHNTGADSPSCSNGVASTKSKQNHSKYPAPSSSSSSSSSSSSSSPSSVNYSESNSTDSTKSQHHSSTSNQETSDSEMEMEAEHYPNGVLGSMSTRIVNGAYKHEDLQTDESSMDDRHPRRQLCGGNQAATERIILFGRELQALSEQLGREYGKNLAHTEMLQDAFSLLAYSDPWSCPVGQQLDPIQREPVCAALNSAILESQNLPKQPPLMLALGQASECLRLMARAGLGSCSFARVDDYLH

[9] = target: T11, methyltransferase like 21C (human, UniProt Q5VZV1 1-264)
T11 construct: HuProt array protein, full-length recombinant from yeast; also called METTL21C
T11 sequence (Q5VZV1 whole entry): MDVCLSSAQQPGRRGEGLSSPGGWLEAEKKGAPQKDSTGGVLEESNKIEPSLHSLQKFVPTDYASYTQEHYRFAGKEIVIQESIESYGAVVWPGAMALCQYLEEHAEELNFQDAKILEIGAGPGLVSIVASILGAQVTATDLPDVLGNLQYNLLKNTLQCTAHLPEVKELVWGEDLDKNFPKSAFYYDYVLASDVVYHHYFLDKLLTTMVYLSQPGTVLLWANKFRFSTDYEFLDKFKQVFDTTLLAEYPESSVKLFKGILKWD

annexin A1 = target: T12, annexin A1 (human, UniProt P04083 2-346)
T12 construct: HuProt array protein, full-length recombinant from yeast; printed 'annexin Al'; also called ANXA1
T12 sequence: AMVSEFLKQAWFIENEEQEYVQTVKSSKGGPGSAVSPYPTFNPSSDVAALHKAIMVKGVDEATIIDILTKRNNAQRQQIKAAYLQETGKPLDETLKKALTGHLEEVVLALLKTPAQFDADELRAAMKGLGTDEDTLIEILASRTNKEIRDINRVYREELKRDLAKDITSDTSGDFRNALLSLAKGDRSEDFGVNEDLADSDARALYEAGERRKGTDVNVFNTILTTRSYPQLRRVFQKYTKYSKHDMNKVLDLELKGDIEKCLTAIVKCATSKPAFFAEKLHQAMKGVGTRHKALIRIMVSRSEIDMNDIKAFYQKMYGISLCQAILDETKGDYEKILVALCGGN

B1: TBRE1027 (antibody, V domains shown)
VH: EVQLLESGGGLVQPGGSLRLSCAASGFTFSSYAMSWVRQAPGKGLEWVSTISGSGHSTYYADSVKGRFTISRDNSKNTLYLQMNSLRAEDTAVYYCAKSTLGGGFDFWGQGTLVTVSS
VL: DIQMTQSPFSLSASVGDRVTITCRASQSISSYLNWYQQKPGKAPKLLIYAASSLQSGVPSRFSGSGSGTDFTLTISSLQPEDFATYYCHQSYSTSLTFGGGTKVEIKR
notes: VH/VL only
binding result (DEAD-box helicase 18): binds
binding result [1]: binds
binding result [2]: binds

B2: TLUA1016 (antibody, V domains shown)
VH: EVQLLESGGALVQPGGSLRLSCAVSGLTFNRFAMTWVRQAPGKGLEWVSHIGGSGGYTYYADSVKGRFTISRDNSKNTLYLQMNSLRAEDTAVYHCVKLKGIGAMWTYAMDVWGQGTTVTVSS
VL: QSVLTQPPSVSGAPGQRVTIPCTGSSSNLGAGYAVHWYQQLPATTPKLLIYANSSRPSGVPDRFSGSRSDTSASLAITGLQAEDEADYYCQSYDSSLSGYVFGTGTWVTVLS
notes: detected with anti-human IgG Fc
binding result [3]: binds

B3: TLUA1001 (antibody, V domains shown)
VH: PLQLQESGPGLVKPSETLSLTCSVSGGSIRSSAPFWGWIRQPPGKGLEWIGNIYYNGDTSYSPSLENRVTLFVDTSKNQFSLNLTSVTAADTAVYYCGRIMTPSIDLWGQGKLVTVSS
VL: EIVLTQSPGTLSLSPGERATLSCRASQSISSTYLVWYQQKPGQAPRLLIYAASYRATGIPDRFSGSGSGTDFILTISRLEPEDFAVYYCQQYGSSLTFGGGTKVEIKR
notes: as for B2
binding result [4]: binds
binding result [5]: binds
binding result (FMR1 autosomal homolog 2): binds

Further lines, results first:

binding result [6]: binds
binding result [7]: binds
B4: TLUS1006 (antibody, V domains shown)
VH: PVHLVQSGAEVRKPGSSVKVSCMASGGSFNTYAVNWVRQAPGQGLEWMGGIIPVFGTTNYAPRFQGRVTITADESTSTVYMELTSLTSEDTAVYYCARDRDSGYERNCLDPWGQGTLVTVSS
VL: DIVMTQSPDSLAVTLGERATINCRSSQTVLYDSNNKNYLAWYQQKPGQPPKLLIYWASIRESGVPDRFSGSGSGTDFTLTINTLQAEDVAIYFCQQYFTTPRTFGQGTKVEIKR
notes: as for B2

binding result [8]: binds
B5: TMEL1017 (antibody, V domains shown)
VH: EVQLVESGGGLVKPGGSLRLSCAASGFTFSNYNMNWVRQAPGKGLEWVSSISSSSSYIYYADSVKGRFTISRDNAKNSLYLQMNSLRAEDTAVYYCARDALDFDWLLSAGGFDYWGQGTLVTVSS
VL: ASALTQPASVSGSPGQSITISCTGTSSDVGGYNYVSWYQQHPGKAPKLMIYEVSNRPSGVSNRFSGSKSGNTASLTISGLQAEDEADYYCSSYTSSSTLVFGGGTKLTVLG
notes: as for B2

binding result [9]: binds
B6: TLUS1003 (antibody, V domains shown)
VH: QVHLVQSGSEFKKPGASVKISCKTSGYTFTNYAMNWVRQAPGQGLEWVGWINTVTGIPGYAQGFTGRFIISLDTSGRTSYLQINSLQAEDTAVYYCARSGGFGWSRDLDYWGQGTLVTVSS
VL: DIVLTQSPLSLPVTPGEPASISCRSSQSLLHSNGVYYLDWYLLKPGQSPQLVIYMGSSRASGVPDRFSGSGSGTDFRLKISRVEAEDVGIYYCMQALQTPWTFGQGTKVEIKR
notes: as for B2

binding result (annexin A1): binds
B7: TLUA1004 (antibody, V domains shown)
VH: EVQLVESGGGLVQTGGSLRLSCSASGFTFNNYWMHWVRQAPGKGLLWLSRINTDGSRGHYDDSVQGRFTISRDNAKQTVYLQMDGLRAEDTAVYFCARDGYDFRAFDHWGQGVLVTVSS
VL: DIQMTQSPSSLSASVGDKVTMTCRASQFISVYVNWYQQKPGKAPKLLIYTASSLESGVSSRFSGGGSGTDFTLTIRSLQPEDFAIYYCQQTYSTPWTFGPGTRVEIKR
notes: as for B2
